According to patent US20210267930A1, “MODIFIED ANTIBODY-ALBUMIN NANOPARTICLE COMPLEXES FOR CANCER TREATMENT” (Mayo Foundation for Medical Education and Research, priority 2016, published 2021):

Columns and labels:
ABRAXANE® (ABX) = target: T1, ABRAXANE® (ABX) (Homo sapiens, UniProt P02768); experiment: Binding of antibody to ABX, dissociation constant
T1 construct: purchased Celgene, Summit, N.J

HSA peptide 4 = target: T2, HSA peptide 4 (Homo sapiens, UniProt P02768); experiment: Biacore surface plasmon resonance, antibody binding to HSA peptide 4
T2 construct: An albumin peptide library was constructed with 18 amino acid peptides
Experimental: (§1) An albumin peptide library was constructed with 18 amino acid peptides, each containing a 6 amino acid overlap, and each albumin peptide was run against rituximab fixed on a CMS chip. Peptides were suspended to 5-10 mg/mL in HBS-EP plus running buffer. Water insoluble peptides were dissolved in 10% DMSO (Sigma-Aldrich, St. Louis, Mo.). Rituximab was immobilized onto Biacore CMS (GE Healthcare, Chicago, Ill.) chips via amine coupling. Biacore X-100 (GE Healthcare, Chicago, Ill.) was used to screen the albumin peptide libraries over immobilized rituximab. Peptides were screened from 1-50 μg/mL with an exposure time of 120 seconds. Biacore X100 software was used to determine binding kinetics.
(§2) The sequence of the variable region of the heavy chain where the binding site is located is provided in FIG. 13F for both bevacizumab (SEQ ID NO.: 1) and rituximab (SEQ ID NO.: 2). The 19-AA region of interest is underlined for bevacizumab (SEQ ID NO.: 8—[…]) and rituximab (SEQ ID NO.: 10—[…]), and share about 80% identity. FIG. 13G provides the sequences from each antibody that bind HSA.

HSA peptide 40 = HSA peptide 40 (Homo sapiens, UniProt P02768); experiment: Biacore surface plasmon resonance, antibody binding to HSA peptide 40
Experimental: as §1, §2

[1] = target: CD20 (membrane bound, on Daudi cells) (human) (UniProt P11836); experiment: flow cytometry of Daudi cells, isotype control (negative control)
[2] = target: CD20 (membrane bound, on Daudi cells) (human) (UniProt P11836); experiment: flow cytometry on Daudi cells (negative control)
[3] = target: CD20 (membrane bound, on Daudi cells) (human) (UniProt P11836); experiment: blocking assay by flow cytometry: Daudi cells pre-treated with ABX, washed, stained with PE-mouse anti-human CD20
[4] = target: CD20 (membrane bound, on Daudi cells) (human) (UniProt P11836); experiment: blocking assay by flow cytometry: Daudi cells pre-treated with ABX, then stained with labelled anti-human CD20
[5] = test system: antibody complexation with ABX (bevacizumab); experiment: Peptide competition assay on nanoparticle formation with bevacizumab; details: 10-fold molar excess of peptide
Experimental: Peptides were added at a 10-fold molar excess compared to antibody. Diameter was measured using a Malvern Nanosizer at a 1:200 dilution.
A similar experiment was performed using bevacizumab (FIG. 14B).

[6] = target: CD20 (membrane bound, on Daudi cells) (human) (UniProt P11836); experiment: blocking assay by flow cytometry: Daudi cells pre-treated with pharmacy-made AR160 batch 1, then stained with labelled anti-human CD20 (the blocked antibody)
[7] = target: CD20 (membrane bound, on Daudi cells) (human) (UniProt P11836); experiment: flow cytometry, Daudi cells stained with Alexa-fluor 488 AR160 alone (middle panel, upper right quadrant)
[8] = target: CD20 (membrane bound, on Daudi cells) (human) (UniProt P11836); experiment: blocking assay by flow cytometry: Daudi cells pre-treated with AR160, washed, stained with PE-mouse anti-human CD20 (the blocked antibody)
[9] = target: CD20 (membrane bound, on Daudi cells) (human) (UniProt P11836); experiment: flow cytometry, Daudi cells stained with Alexa-fluor 488 AR160 and PE anti-human CD19 (right panel, upper left quadrant)
[10] = target: CD20 (membrane bound, on Daudi cells) (human) (UniProt P11836); experiment: flow cytometry on Daudi cells, ABX labelled with Alexa fluor 488
[11] = target: CD20 (membrane bound, on Daudi cells) (human) (UniProt P11836); experiment: flow cytometry, Daudi cells stained with Alexa-fluor 488 AR160 and PE anti-human CD19 (right panel, upper right quadrant)
[12] = target: CD20 (membrane bound, on Daudi cells) (human) (UniProt P11836); experiment: blocking assay by flow cytometry: Daudi cells pre-treated with lab-made AR160, then stained with labelled anti-human CD20 (the blocked antibody)
[13] = test system: Daudi human lymphoma cells; experiment: Daudi human lymphoma xenograft tumor efficacy; format: in vivo, athymic nude mice; details: intravenous
Experimental: To test tumor efficacy, 5×10^6 Daudi human lymphoma cells were implanted into the right flank of athymic nude mice (Harlan Sprague Dawley, Indianapolis, Ind.). […] Tumor size was monitored 2-3 times/week and tumor volume was calculated with the following equation: (length*width^2)/2. Mice were sacrificed when the tumor size equaled 10% of the mouse body weight, or about 2500 mm^3. The day 10 percent change from baseline was calculated as follows: [(tumor size on treatment day-tumor size on day 10)/tumor size on treatment day]*100. Kaplan Meier curves were generated and median survival was calculated using GraphPad Prism software (GraphPad Software, Inc, La Jolla, Calif.).

CD20 = target: T3, CD20 (Homo sapiens, UniProt P11836); experiment: Blocking of PE-mouse anti-human CD20 binding to CD20+ Daudi cells (flow cytometry); format: cell-based; details: Daudi cells pre-incubated with test article
T3 construct: host or cells: Daudi
T3 sequence (P11836 1-297): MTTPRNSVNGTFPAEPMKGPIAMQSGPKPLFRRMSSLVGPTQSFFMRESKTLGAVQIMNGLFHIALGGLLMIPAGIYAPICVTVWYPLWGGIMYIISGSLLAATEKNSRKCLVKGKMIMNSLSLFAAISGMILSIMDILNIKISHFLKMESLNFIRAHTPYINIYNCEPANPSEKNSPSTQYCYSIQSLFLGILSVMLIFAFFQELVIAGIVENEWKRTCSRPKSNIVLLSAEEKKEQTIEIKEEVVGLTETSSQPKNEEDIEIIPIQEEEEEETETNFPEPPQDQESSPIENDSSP
Experimental: After incubation, the cells were washed and stained with PE-mouse anti-human CD20 and enumerated by flow cytometry.

CD20+ Daudi cells = experiment: In vitro toxicity assay, EdU proliferation of Daudi cells; format: cell-based, human; details: rituximab 0-200 μg/mL overnight
Experimental: The level of proliferation was determined by staining cells with FITC labeled anti-EdU. The proliferation index was calculated by normalization to the untreated positive control.
Cell proliferation was measured with EdU, a thymidine analog, that was detected with a FITC conjugated anti-EdU and enumerated by flow cytometry.
The human B-cell lymphoma line, Daudi, (ATCC Manassa, Va.) were cultured in RPMI with 1% penicillin, streptomycin and glutamine (PSG) and 10% FBS. Cells were harvested and plated at 0.2×10^6 cells per well in 24 well plates. […] To measure proliferation, the Click-iT EdU (Molecular Probes, Eugene, Oreg.) kit was utilized. […] The cells were permeabilized with 1% saponin and intercalated EdU was labeled with a FITC-conjugated antibody. The proliferation index was determined by dividing the FITC positive cells from each treatment by the maximum proliferation of untreated EdU labeled cells.

[14] = test system: rituximab, trastuzumab, bevacizumab, and muromonab; experiment: Biacore surface plasmon resonance, albumin peptide library against antibodies; format: binding; details: peptides at 50-1.25 μg/mL in HBS running buffer
Experimental: as §1
Peptides were run at 50, 25, 10, 5, 2.5, 1.25 μg/mL in HBS running buffer. Dissociation constants were determined by Biacore Evaluation Software. […] Diana, F. J., Veronich, K. & Kapoor, A. L. Binding of nonsteroidal anti-inflammatory agents and their effect on binding of racemic warfarin and its enantiomers to human serum albumin. J Pharm Sci 78, 195-199 (1989); Sudlow, G., Birkett, D. J. & Wade, D. N. The characterization of two specific drug binding sites on human serum albumin. Mol Pharmacol 11, 824-832 (1975).

full HSA protein = full HSA protein (Homo sapiens, UniProt P02768); experiment: Biacore surface plasmon resonance, antibody peptide binding to HSA
Text: FIG. 13B represents binding of bevacizumab variable peptide 1 (SEQ ID NO.: 7) to HSA.
as §2

[15] = target: T4, human serum albumin (HSA) (human, UniProt P02768 25-609); experiment: SPR (Biacore) of antibody variable-region peptides with full HSA
T4 construct: also called full HSA protein

## bevacizumab
ABRAXANE® (ABX)
  binding affinity to ABX: bind with a high affinity

## muromonab
HSA peptide 4
  binding to HSA peptide 4: bound
HSA peptide 40
  binding to HSA peptide 40: bound

## isotype control antibody
[1]
  % cells in the CD20+ gate: 6.2%
[2]
  % positive cells: 6.2%

## ABRAXANE® (albumin-bound paclitaxel nanoparticles) (from UniProt P02768 25-609)
[3]
  % cells in the CD20+ gate after pre-treatment: 82.9%
[4]
  % cells in the CD20+ gate after pre-treatment: 82.9%

## Bev Peptide 1: bevacizumab peptide, amino acids 111-125, SEQ ID NO.: 7 (DTAVYYCAKYPHYYGSSHWYF)
[5]
  effect on particle size increase indicative of antibody complexation with ABX: prevent the 30 nm increase in particle size

## AR160 (rituximab-albumin-paclitaxel nanoparticle complex) (from UniProt P02768 25-609)
[6]
  % cells in the CD20+ gate after pre-treatment: 8.2%
[7]
  % of cells in the AR160+ CD19+ quadrant: 15.8%
[8]
  % cells in the CD20+ gate after pre-treatment: 6.6%
[9]
  % of cells in the AR160+ CD19- quadrant: 3.95%
[10]
  % positive cells: 75%
[11]
  % of cells in the AR160+ CD19+ quadrant: 73.8%
[12]
  % cells in the CD20+ gate after pre-treatment: 6.6%

## rituximab
[13]; RIT 12 mg/kg
  median survival: 8 days
  mice having responses by day 10: 0%
  percentage of mice alive at day 10: 12%
[13]; RIT 18 mg/kg
  median survival: 10.5 days
  mice having responses by day 10: 0%
  percentage of mice alive at day 10: 38%
CD20
  inhibition of subsequent binding of anti-human CD20 antibody: prohibit subsequent binding of the anti-human CD20 antibody
CD20+ Daudi cells
  toxicity to Daudi cells: not toxic
ABRAXANE® (ABX)
  binding affinity to ABX: bind with a high affinity
  dissociation constant for ABX: in the picomolar range

## HSA peptide 40: HSA amino acids 455-472, SEQ ID NO.: 5; maps to the Sudlow II site
[5]
  effect on particle size increase indicative of antibody complexation with ABX: prevent the 30 nm increase in particle size
[14]
  binding to the antibodies: found to bind the antibodies

## muromonab peptide: peptide from muromonab corresponding to the albumin-binding region; probably SEQ ID NO.: 12 (DDHYCLDYWGQGTTLTVSSA)
Full HSA protein
  binding to the full HSA protein: did not bind

## DDHYCLDYWGQGTTLTVSSA [muromonab peptide]
[15]
  binding result: no binding
